Values of other authors as cited in US8420067B2, “Targeted polylysine dendrimer therapeutic agent” (Starpharma Pty Ltd, priority 2006, dated 2013).
Where two headings read alike, the source gives them in different places.

## α-methoxy-ω-{N-2-(3-hydroxypropyl-cholesterylcarbamate)-2-methyl-[1,3]dioxan-5-yl-amido}-polyethyleneglycol110
Acidic conditions (pH 4-6)
  stability of the conjugate in acidic conditions: not stable

## α-methoxy-ω-{N-(2-cholesteryloxy-[1,3]dioxolan-4-yl)methylamido}-polyethyleneglycol110
pH 4
  stability of the conjugate in acidic conditions: moderately less stable
pH 5
  stability of the conjugate in acidic conditions: very stable

## α-methoxy-ω-{N-(2-methyl-s-octadecyloxy-[1,3]dioxan-5-yl)-amido}-polyethyleneglycol110
Acidic conditions (pH 4-6)
  stability of the conjugate in acidic conditions: not stable

## α-methoxy-ω-{N-(2-octadecyloxy-[1,3]dioxolan-4-yl)methylamido}-polyethyleneglycol110
pH 4
  stability of the conjugate in acidic conditions: good stability
pH 5
  stability of the conjugate in acidic conditions: good stability
